A word on the Kd: it is the concentration at which binding is half-saturated. Usually koff stands for a measure of how fast the partners let go of each other. Lower therefore signals a long-lived complex. As usually defined, the kon is the second-order rate constant of association. A higher kon goes with faster complex formation.

Six molecules from patent US20240150474A1 (Regeneron, published 2024) can be followed below.

Where a chain is given by its changes, count along the chain named.

The target in assay [1] is human ACVR1 extracellular domain expressed with a C-terminal myc-myc-hexahistidine tag (human). Briefly: BLI (Octet) cross-competition: hACVR1.mmh captured on anti-His biosensor, saturated with 1st mAb REGN 5168 (50 ug/mL), then dipped into 2nd mAb Isotype Control (50 ug/mL); white cell. (BLI is a label-free optical method that tracks binding on a fibre tip over time.)
Assay [2] shares this target. Nature of the assay: BLI (Octet) cross-competition: hACVR1.mmh captured on anti-His biosensor, saturated with 1st mAb REGN 5167 (50 ug/mL), then dipped into 2nd mAb Isotype Control (50 ug/mL); white cell.
For assay [3] the target is unchanged. Briefly: BLI (Octet) cross-competition: hACVR1.mmh captured on anti-His biosensor, saturated with 1st mAb REGN 5166 (50 ug/mL), then dipped into 2nd mAb Isotype Control (50 ug/mL); white cell.
The target is the same in assay [4]. Nature of the assay: BLI (Octet) cross-competition: hACVR1.mmh captured on anti-His biosensor, first dipped into 1st mAb Isotype Control (50 ug/mL), then into 2nd mAb Isotype Control (50 ug/mL); dotted cell (self-self).
Assay [5] addresses full length human ACVR1 (amino acids 1-509, R206H, of accession #Q04771) on HEK293/BRE-luc/hACVR1-R206H-clone H2 cells (human) (UniProt Q04771). Briefly: flow cytometry, 70 nM antibody on HEK293/hACVR1-R206H cells, 4C. Background: In flow cytometry, cells or beads pass a laser one at a time.
The target in assay [6] is T1, dimeric human ACVRL1 (human, UniProt P37023 22-118, limits assumed).
T1 construct: Construct and dimerising part not described; also called Human Receptor ACVRL1
Briefly: SPR Biacore T200, mAb captured by anti-human Fab, 100 nM dimeric receptor injected, 25C. How it is done:
(§1) ACVR1 mAbs were tested for cross-reactivity to a panel of bone morphogenic protein type 1 receptors including human and mouse ACVR1, BMPR1A, and BMPR1B, as well as ACVRL1 on a Biacore T200 as follows. In order to measure the specificity of ACVR1 mAbs, ACVR1 mAbs were captured with anti-human Fab immobilized on a CM5 chip. 100 nM or 10 nM of dimeric human or mouse ACVR1, ACVRL1, BMPR1A or BMPR1B were injected at 30 μL/min for 2 min (duplicate injections) and the experiment was performed at 25° C. Binding of different receptors to the captured mAb was determined using Scrubber 2.0c software.

The target of assay [7] is T2, dimeric human BMPR1A (human, UniProt P36894 24-152, limits assumed).
T2 construct: Construct and dimerising part not described; also called Human Receptor BMPR1A
The description is as above. How it is done:
as §1

Assay [8] addresses T3, dimeric mouse ACVRL1 (mouse, UniProt Q61288 23-119, limits assumed).
T3 construct: Construct and dimerising part not described; also called Mouse Receptor ACVRL1
T3 sequence (looked up): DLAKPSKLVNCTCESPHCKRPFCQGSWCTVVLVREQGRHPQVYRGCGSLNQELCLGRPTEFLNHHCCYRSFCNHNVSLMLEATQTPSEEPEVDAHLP
The assay is described as above. On the procedure:
as §1

In assay [9] the target is T4, dimeric mouse ACVR1 (mouse, UniProt P37172 21-123, limits assumed).
T4 construct: also called Mouse Receptor ACVR1
T4 sequence (looked up): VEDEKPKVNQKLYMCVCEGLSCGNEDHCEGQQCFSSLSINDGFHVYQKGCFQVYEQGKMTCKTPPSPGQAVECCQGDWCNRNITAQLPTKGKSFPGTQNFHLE
The description is as above. How it is done:
as §1

In assay [10] the target is T5, dimeric human ACVR1 (human, UniProt Q04771 21-123, limits assumed).
T5 construct: ACVR1'; also called Human Receptor ACVR1
T5 sequence (looked up): T4 sequence (looked up) with V1M, Q10P
The description is as above. On the procedure: as §1

In assay [11] the target is T6, dimeric mouse BMPR1B (mouse, UniProt P36898 14-126, limits assumed).
T6 construct: Construct and dimerising part not described; also called Mouse Receptor BMPR1B
T6 sequence (looked up): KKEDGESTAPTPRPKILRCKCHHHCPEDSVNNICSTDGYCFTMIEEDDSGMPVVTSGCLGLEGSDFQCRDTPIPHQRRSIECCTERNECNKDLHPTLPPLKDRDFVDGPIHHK
Described as above. On the procedure: as §1

The target of assay [12] is T7, dimeric mouse BMPR1A (mouse, UniProt P36895 24-152, limits assumed).
T7 construct: Construct and dimerising part not described; also called Mouse Receptor BMPR1A
The description is as above. How it is done:
as §1

The target in assay [13] is T8, dimeric human BMPR1B (human, UniProt O00238 14-126, limits assumed).
T8 construct: Construct and dimerising part not described; also called Human Receptor BMPR1B
T8 sequence (looked up): T6 sequence (looked up) with I16V, M51L, D102N, K113R
The description is as above. On the procedure: as §1

Assay [14] addresses full length human ACVR1 (amino acids 1-509, R206H, of accession #Q04771) on HEK293/BRE-luc/hACVR1-R206H-clone H2 cells (human) (UniProt Q04771). Briefly: flow cytometry, secondary antibody alone on HEK293/hACVR1-R206H cells, 4C.
In assay [15] the target is T9, mouse ACVR1 extracellular domain expressed with a C-terminal myc-myc-hexahistidine tag (mouse).
T9 construct: also called mACVR1-mmh; mACVR1.mmh
T9 chain: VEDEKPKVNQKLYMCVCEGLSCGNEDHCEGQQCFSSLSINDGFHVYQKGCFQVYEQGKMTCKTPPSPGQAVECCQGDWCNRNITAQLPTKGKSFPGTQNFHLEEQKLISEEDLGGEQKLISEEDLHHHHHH
Briefly: SPR, mACVR1.mmh captured by anti-myc antibody on CM5, Fab injected, 37C. On the procedure:
In order to measure the binding constants of ACVR1 Fabs, mACVR1.mmh was captured with a myc antibody (REGN 642) immobilized on a CM5 chip. Different concentrations of ACVR1 Fabs were injected over mACVR1.mmh at 37° C. Binding rate constants and equilibrium dissociation rate constants were calculated by fitting data using 1:1 Langmuir binding model (Scrubber 2.0c).

Assay [16] has as its target T10, human ACVR1 extracellular domain expressed with a C-terminal myc-myc-hexahistidine tag (human).
T10 construct: also called hACVR1-mmh; hACVR1.mmh
T10 chain: T9 chain with V1M, Q10P
Nature of the assay: SPR, hACVR1.mmh captured by anti-myc antibody on CM5, Fab injected, 37C. How it is done:
In order to measure the binding constants of ACVR1 Fabs, hACVR1.mmh was captured with a myc antibody (REGN642) immobilized on a CM5 chip. Different concentrations of ACVR1 Fabs were injected over hACVR1.mmh at 37° C. Binding rate constants and equilibrium dissociation rate constants were calculated by fitting data using 1:1 Langmuir binding model (Scrubber 2.0c).
A general note: Surface plasmon resonance follows binding to a sensor surface in real time, without labels.

T7 sequence (P36895 24-152 limits assumed): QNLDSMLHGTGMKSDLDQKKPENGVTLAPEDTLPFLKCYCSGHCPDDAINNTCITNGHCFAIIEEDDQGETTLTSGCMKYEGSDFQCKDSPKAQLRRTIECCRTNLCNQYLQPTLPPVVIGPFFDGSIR
T2 sequence (P36894 24-152 limits assumed): as the sequence (P36895 24-152 limits assumed) above, with L16S, P21S, T74A counted along it
T1 sequence (P37023 22-118 limits assumed): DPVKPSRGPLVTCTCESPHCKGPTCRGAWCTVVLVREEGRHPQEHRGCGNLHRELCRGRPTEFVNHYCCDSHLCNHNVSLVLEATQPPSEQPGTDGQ

“isotype-matched negative control (Example 5) (antibody)”: the wavelength shift of 2nd mAb binding was found to be 0.04 nm in assay [1], 0.05 nm in [2], 0.05 nm in [3] and 0.07 nm in assay [4].

In [5], human IgG control antibody came in with an MFI-Normalized to Unstained Control of 3 fold.

Regarding Isotype control (Example 4) (antibody), the 100 nM Human Receptor Binding in assay [6] is 2 RU; in assay [7], 1 RU; in assay [10], 11 RU; in [13] it was 19 RU. Moreover, the 100 nM Mouse Receptor Binding in [8] turned out to be 2 RU; in [9], 8 RU; in assay [11], 1 RU; in [12] it was 7 RU.

“Alexa Fluor-647 conjugated secondary antibody (Jackson ImmunoResearch, anti-human #109-607-003)”: the MFI-Normalized to Unstained Control in [14] was determined as 1 fold.

B1: REGN 5167 Fab (Fab, V domains shown)
VH: QLQLQESGPGLVKPSETLSLTCTVSGGSITSSSYYWAWIRQPPGKGLEWIGKIYYSGSTHYNPSLKSRVTISVDTSKNQFSLKLSSVTAADTAVYYCARVGGHGYGDSAGLAFDIWGQGTMVTVSS
VL: EIVLTQSPGTLSLSPGERATLSCRASQSVSSAFLAWYQQKPGQAPRLLIYGASYRHTGIPDRFSGSGSGTDFTLTISRLEPEDFAVYYCQHYGVGPRTFGGGTKVEIK
notes: also called ACVR1 Fab
In [15], B1 came in with a Kd of 0.178 nM, a koff of 9.72e-05 s⁻¹, a kon of 545000 M⁻¹ s⁻¹ and a t1/2 of 119 min. In assay [16], binding was put at a Kd of 0.17 nM, the off-rate (koff) is 9.36e-05 s⁻¹, the kon stood at 549000 M⁻¹ s⁻¹ and the t1/2 stood at 123 min.

B2: REGN 5166 Fab (Fab, V domains shown)
VH: QVQLVESGGGVVQPGRSLRLSCAASGFTFSAYWMHWVRQAPGKGLEWVAVISYDGSNKYYADSVKGRFTISRDHSKNTLYLQMNSLRAEDTAVYYCAKGDAYDSWRILLGGDYYGMDVWGQGTTVTVSS
VL: EIVLTQSPGTLSLSPGERATLSCRASQSVSSSYLAWYQQKPGQAPRPLIYGASSRATGIPDRFSGSGSGTDFTLTISRLEPEDFAVYYCQQGGDAPPYTFGGGTKVEIK
notes: also called ACVR1 Fab
In assay [15], B2 showed a dissociation constant Kd of 0.16 nM, a koff of 0.000105 s⁻¹, a kon of 653000 M⁻¹ s⁻¹ and a t1/2 of 110 min. Besides, in [16], the Kd amounted to 0.154 nM, the off-rate (koff) came out at 0.000106 s⁻¹, the association rate constant (kon) worked out at 690000 M⁻¹ s⁻¹ and the t1/2 was 109 min.
